Experimental data as given in patent US20220273711A1 (University of Washington, published 2022).

B1: Bim_Her2 (Her2 DARPin tagged with N-terminal Bim peptide) (designed binder)
chain: MGSHHHHHHGSGSENLYFQGSTDEIWIAQELRRIGDEFNAYYASGSGDLGKKLLEAARAGQDDEVRILMANGADVNAKDEYGLTPLYLATAHGHLEIVEVLLKNGADVNAVDAIGFTPLHLAAFIGHLEIAEVLLKHGADVNAQDKFGKTAFDISIGNGNEDLAEILQKLN
notes: also called Anti-Her2 DARPin with N-terminal fusion to Bim; Bim-DARPin
B2: Bim_EGFR (EGFR DARPin tagged with N-terminal Bim peptide) (designed binder)
chain: MGSHHHHHHGSGSENLYFQGSTDEIWIAQELRRIGDEFNAYYASGSGDLGKKLLEAARAGQDDEVRILMANGADVNADDTWGWTPLHLAAYQGHLEIVEVLLKNGADVNAYDYIGWTPLHLAADGHLEIVEVLLKNGADVNASDYIGDTPLHLAAHNGHLEIVEVLLKHGADVNAQDKFGKTAFDISIDNGNEDLAEILQKLN
notes: also called anti-EGFR DARPin with N-terminal fusion to Bim; Bim-DARPin

Legend:
[1] = molecular target: T1, Her2-eGFP (hsHER2_ecd_tm-eGFP) (human (hs)); assay: flow cytometry; Bim-DARPin pre-complexed with Bcl2-AF594, 3-fold dilutions from 300 nM to 0.4 nM, mixed K562 cells expressing Her2-eGFP, EGFR-iRFP, both or neither
T1 construct: Expressed on K562 cells by lentiviral transduction; also called Her2-eGFP on K562 cells
Procedure: (§1) FIG. 16. DARPin binder affinity measured by flow cytometry. Anti-Her2 or anti-EGFR DARPins with N-terminal fusions to Bim were pre-complexed with Bcl2-AF594 and serially diluted 3-fold from 300 nM down to 0.4 nM. This dilution series was used to label a mixed population of K562 cells expressing Her2-eGFP, EGFR-iRFP, both, or neither for one hour at room temperature in a 50 μl incubation volume. The cells were then washed in PBS supplemented with 0.1% bovine serum albumin and analyzed on an LSRII flow cytometer.

[2] = molecular target: T2, EGFR-iRFP (hsEGFR_ecd_tm-iRFP) (human (hs)); assay: as above
T2 construct: Expressed on K562 cells by lentiviral transduction; also called EGFR-iRFP on K562 cells
T2 sequence (chain, as listed by the source limits assumed): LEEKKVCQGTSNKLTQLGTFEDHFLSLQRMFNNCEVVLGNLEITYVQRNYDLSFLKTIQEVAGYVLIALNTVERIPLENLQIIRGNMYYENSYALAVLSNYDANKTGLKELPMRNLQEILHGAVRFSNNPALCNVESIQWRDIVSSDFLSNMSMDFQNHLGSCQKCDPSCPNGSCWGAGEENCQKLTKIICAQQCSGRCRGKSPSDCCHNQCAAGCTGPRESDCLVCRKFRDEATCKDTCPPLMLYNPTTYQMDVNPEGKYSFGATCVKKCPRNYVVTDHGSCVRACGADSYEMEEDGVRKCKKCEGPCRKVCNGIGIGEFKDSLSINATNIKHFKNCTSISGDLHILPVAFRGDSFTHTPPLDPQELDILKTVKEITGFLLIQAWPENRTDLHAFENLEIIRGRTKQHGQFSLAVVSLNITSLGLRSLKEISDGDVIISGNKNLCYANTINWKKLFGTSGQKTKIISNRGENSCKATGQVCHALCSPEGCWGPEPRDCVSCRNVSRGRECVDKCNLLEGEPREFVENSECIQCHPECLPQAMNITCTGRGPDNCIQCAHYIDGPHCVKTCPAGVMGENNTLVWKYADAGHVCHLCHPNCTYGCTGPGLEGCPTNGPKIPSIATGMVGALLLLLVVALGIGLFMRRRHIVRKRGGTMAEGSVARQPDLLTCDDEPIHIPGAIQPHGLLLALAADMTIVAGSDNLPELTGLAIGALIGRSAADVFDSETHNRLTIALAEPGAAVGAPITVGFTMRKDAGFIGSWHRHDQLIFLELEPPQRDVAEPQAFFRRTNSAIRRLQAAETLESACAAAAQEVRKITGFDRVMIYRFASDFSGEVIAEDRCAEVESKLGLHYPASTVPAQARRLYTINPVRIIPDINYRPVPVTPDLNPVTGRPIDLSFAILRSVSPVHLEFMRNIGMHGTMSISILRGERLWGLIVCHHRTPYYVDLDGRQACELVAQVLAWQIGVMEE
Procedure: as §1

Binder	Kd [1]	Kd [2]
B1	~10 nM	–
B2	–	~10 nM
